Experimental data: patent US20210180089A1, “NANOPARTICLES FOR TRANSFECTION” (LOXEGEN HOLDINGS PTY LTD, priority 2018, published 2021)
Ends that are not written are not given here.

Assay: Average particle diameter of peptide/DNA nanoparticles by ZetaPALS dynamic light scattering
Type: physicochemical
Method: The DNA was diluted to 50-100 ug/mL in 5mM HEPES pH 7.4. A peptide solution at a concentration of 100-180 ug/mL in 5 mM HEPES was prepared. A 250 uL volume of the DNA solution was transferred into a 2 mL Eppendorf tube. Using a 100 uL peptide, an equal volume of the peptide solution was titrated, at an appropriate rate to avoid aggregation, into the DNA solution while vortexing. The solution slowly turns translucent and no visible particles should occur. The particle size is measured using a dynamic light scattering (DLS) instrument (such as the Brookhaven ZetaPALS). The particle size should be below 100 nm, preferably below 80 nm. The nanoparticles were filtered through a 0.22 um sterile filter. The formulation was stored in a refrigerator (2-8 deg C.) until desired for use and/or for PEGylation. Where PEGylated peptide/DNA nanoparticles are required, a PEG-Zn solution was prepared in a separate tube at a concentration of about 400 mg/mL. 25-100 uL of the PEG solution was slowly added to 500 uL of the peptide/DNA nanoparticle preparation, depending on the degree of PEG-coating required. The particle size was measured by DLS. The particle size should be about 100-140 nm depending on the amount of PEG added. The formulation was store in a refrigerator (2-8 deg C.). Above describes a range for the peptide/DNA ratio which can be used in one embodiment. In a preferred example, the ratios used for nanoparticle preparation were: 100 ug/mL DNA and 100 ug/mL peptide mixed at equal volume. PEGylation: 50 uL of 440 mg/mL PEG-IDA-Zn into 500 uL nanoparticles as prepared above.

Substance | Average Particle Diameter (via ZETA Pals particle size analysis) (GFP, PEG) | Average Particle Diameter (via ZETA Pals particle size analysis) (GFP, non-PEG) | Average Particle Diameter (via ZETA Pals particle size analysis) (luciferase, PEG) | Average Particle Diameter (via ZETA Pals particle size analysis) (luciferase, non-PEG)
(H-Orn-His-Orn-His-His-Orn-His-His-Orn-His-His-Orn-His-His-Orn-His-His-Orn-His-Orn)4-Lys-Lys-Lys-His-His-His-His-Asn-His-His-His-His-OH [Peptide 2595] | 101.3 nm (GFP, PEG) | 73.7 nm (GFP, non-PEG) | 70.9 nm (luciferase, PEG) | 65.9 nm (luciferase, non-PEG)
(H-Lys-His-Lys-His-Lys-His-Lys-His-Lys-His-Lys-His-Lys-His-Lys-His-Lys-His-His-Lys)4-Lys-Lys-Lys-His-His-His-His-Asn-His-His-His-His-OH (chain 1 H-KHKHKHKHKHKHKHKHKHHK; chain 2 KKKHHHHNHHHH-OH; also: four copies of chain 1 branched on core chain 2, attachment points not given here) [Peptide 2596, 1:1 Lys:His] | 124.1 nm (GFP, PEG) | 82.1 nm (GFP, non-PEG) | 77.4 nm (luciferase, PEG) | 64.3 nm (luciferase, non-PEG)
(H-Lys-His-Lys-His-His-Lys-His-Lys-His-His-Lys-His-Lys-His-His-Lys-His-Lys-His-Lys)4-Lys-Lys-Lys-His-His-His-His-Asn-His-His-His-His-OH (chain 1 H-KHKHHKHKHHKHKHHKHKHK; chain 2 KKKHHHHNHHHH-OH; also: four copies of chain 1 branched on core chain 2, attachment points not given here) [Peptide 2597, 9:11 Lys:His] | 90.9 nm (GFP, PEG) | 54.7 nm (GFP, non-PEG) | 86.0 nm (luciferase, PEG) | 51.3 nm (luciferase, non-PEG)
(H-Lys-His-Lys-His-His-Lys-His-His-Lys-His-His-Lys-His-His-Lys-His-His-Lys-His-Lys)4-Lys-Lys-Lys-His-His-His-His-Asn-His-His-His-His-OH (chain 1 H-KHKHHKHHKHHKHHKHHKHK; chain 2 KKKHHHHNHHHH-OH; also: four copies of chain 1 branched on core chain 2, attachment points not given here) [Peptide 2070, original peptide HK, 2:3 Lys:His, 4 branches] | 127.4 nm (GFP, PEG) | 66.0 nm (GFP, non-PEG) | 94.5 nm (luciferase, PEG) | 58.5 nm (luciferase, non-PEG)
